Measurements: publication doi:10.1101/2024.01.05.574393 (bioRxiv, 2024)

B1: FLNCd24 (domain 24 of filamin C, residues 2630-2724), wild type (domain or fragment)
chain: GSKFSSDASKVVTRGPGLSQAFVGQKNSFTVDCSKAGTNMMMVGVHGPKTPCEEVYVKHMGNRVYNVTYTVKEKGDYILIVKWGDESVPGSPFKVKV
B2: FLNCd24 T2677D (phospho-mimic, residues 2630-2724) (domain or fragment)
chain: GSKFSSDASKVVTRGPGLSQAFVGQKNSFTVDCSKAGTNMMMVGVHGPKDPCEEVYVKHMGNRVYNVTYTVKEKGDYILIVKWGDESVPGSPFKVKV
B3: FLNCd24 Y2683E (phospho-mimic, residues 2630-2724) (domain or fragment)
chain: GSKFSSDASKVVTRGPGLSQAFVGQKNSFTVDCSKAGTNMMMVGVHGPKTPCEEVEVKHMGNRVYNVTYTVKEKGDYILIVKWGDESVPGSPFKVKV
B4: HSPB7ACD C131S (residues 78-162 of isoform 2) (domain or fragment)
chain: not shown

How the values were obtained:
native MS [1] = target: the molecule itself; test: native MS
native MS [2] = target: the molecule itself; test: native MS; remark: listed apart in the source
[3] = target: HSPB7ΔN (residues 78-175 of isoform 2) (human, UniProt Q9UBY9-2 78-175); test: native MS
[4] = target: B1; test: crystal structure

| Binder | Kd (native MS [1]) [µM] | stoichiometry N (native MS [2]) | Kd [3] [µM] | binding result [4] |
| --- | --- | --- | --- | --- |
| B1 | 0.0759 ± 0.0084 | 2 | 0.0067 ± 0.0014 | – |
| B2 | 0.0085 ± 0.001 | – | – | – |
| B3 | 4.05 ± 0.557 | – | – | – |
| B4 | – | – | – | binds |
